Results: PMC10525234, “Antifungal Action of Arabidopsis thaliana TCP21 via Induction of Oxidative Stress and Apoptosis” (Antioxidants, 2023)

Target: the molecule itself
Assay: negative-stain transmission electron microscopy; purified AtTCP21 on a glow-discharged carbon-coated copper grid, negatively stained with 2% uranyl acetate; protein dialyzed against 25 mM HEPES pH 7.2, 150 mM NaCl

B1: Arabidopsis thaliana TCP21 (natural protein)
chain: not shown
notes: full-length protein expressed from cDNA; also called AtTCP21; recombinant AtTCP21; source: E. coli BL21(DE3), pET28a, purified (Ni-NTA, SEC)
B1: binds.
